We go through 17 sequences from the DeepSol protein solubility set.

The series can be described thus: soluble on expression in E. coli; label from the status in PepcDB or PDB records.
“GPGSMSLLKGKEVEVTQDDQRRICIFARMHRRRKELTATITRLKEQAAKLSDASDELMIADGAMYLFGETFVAIDNDEAGEWLAKEQAQLQRDQETTEEELKLVESQLSDLKAKLYASLGSQVYLEDE”: the “soluble on expression in E. coli” value is on record as “soluble”.

Consider “MSLTPATQPLINAEPAVAAQTEQNPQVGQVMPGVQGADAPVVAQNGPSRDVKLTFAQIAPPPGSMVLRGINPNGSIEFGMRSDEVVTKAMLNLEYTPSPSLLPVQSQLKVYLNDELMGVLPVTKEQLGKKTLAQMPINPLFITDFNRVRLEFVGHYQDVCENPASTTLWLDVGRSSGLDLTYQTLNVKNDLSHFPVPFFDPRDNRTNTLPMVFAGAPDVGLQQASAIVASWFGSRSGWRGQNFPVLYNQLPDRNAIVFATNDKRPDFLRDHPAVKAPVIEMINHPQNPYVKLLVVFGRDDKDLLQAAKGIAQGNILFRGESVVVNEVKPLLPRKPYDAPNWVRTDRPVTFGELKTYEEQLQSSGLEPAAINVSLNLPPDLYLMRSTGIDMDINYRYTMPPVKDSSRMDISLNNQFLQSFNLSSKQEANRLLLRIPVLQGLLDGKTDVSIPALKLGATNQLRFDFEYMNPMPGGSVDNCITFQPVQNHVVIGDDSTIDFSKYYHFIPMPDLRAFANAGFPFSRMADLSQTITVMPKTPNEAQMETLLNTVGFIGAQTGFPAINLTVTDDGSTIQGKDADIMIIGGIPDKLKDDKQIDLLVQATESWVKTPMRQTPFPGIVPDESDRAAETQSTLTSSGAMAAVIGFQSPYNDQRSVIALLADSPRGYEMLNDAVNDSGKRATMFGSVAVIRESGINSLRVGDVYYVGHLPWFERLWYALANHPILEGHHHHHH”, for which the “soluble on expression in E. coli” value is given as “soluble”.

With “MSINNTQNNCRFCSEISQANGEDPIGTAIAVEQYLIIEAAQPWPIPIWIEPDPMPQGVIEALNFIWEGGGTVRQLAIAPDKEYSHPGYTRVIYYRRPAKFFAQFEKQEFIVPHALLGSLALALLKNPEELPNFNQYRQQTNHIREILVCNHGNVDAACSRFGYPIYQKLRSEYAAATNSNLRFWRCSHFGGHEFAPTLVDLPQGQYWGHLKPEILDLLVLRNGSVKELYPYYRGWGGLSFFEQIAEREIWMLEGWKWLEYHKAGQVLASDEINQEWADVRIDFTTVDGNISSAYQARVEVKGSVMTAWKSGANPTLEEVKQYRVRNLVKLAL”, the “soluble on expression in E. coli” value was “not soluble”.

Consider “MSLVTIVAPMDEILERAHVVALPMRVKFRGIMVREAVLFDGPKGWGEFSPFVEYGVQEAAQWLRCGLEMAFQGPPPMIRDAVEVNATIPAVSPDQVPEILARYPGCTTVKVKVAEGDDAARVAMVREVLPDARIRVDANRGWTVDQAVAASKHLGELEYMEQPCASVAELAELRRRISVPIAADESIRRVSDPYEVARLHAADVAVVKAAPLGGPRNIVDIAKFYQQRGLSLTVASALDTGVGMNAGIAVAAAIDSNPAGLATQRLFVEDVTEPRTIVDGKMSVEMLAPDPARLAEFEVTGPRRDWWLDRVRGALECLHDFIPEGHHHHHH”, for which the “soluble on expression in E. coli” value is listed as “not soluble”.

As for “MAHHHHHHMGGYFSKDLEECLRNEKRNLNRSIRELEREIFKLTNEQSKIEKNIKINAKRNGDTSTVRTLARDYISIKKTIAKYNKLKSHLFSMKVKLQSVKSSEQLGRSLTEINRVIKRVNGYIKLTSLNKSINDFHKENNEVSLKEDMLDDLFEAFDYDSQMVAEEEELVTKVLEGMGIQMNAKLEDIPSPGELPKTQVDHLGVSDLEARINNLRLGKS”, the “soluble on expression in E. coli” value is listed as “soluble”.

On to “MNNENMLSDNSTQTSQINETIDQPIIYILDTNILLHEPFAFLSFKEHDVVVPMTVLEELDSIKDRRKDVSRDARVAIRALEDTLRDASPEQVLAGVKLPQNDDQHPSGSLAIINDYALEKTAHTLSFNENDNRIINAALHIQKKTPNKKIVLVTKDINMRLKAKGAGLAHVEDYRTDQLIDDIQFLTKGYHKFEGDFWQQIQSVDSETEGRNTTHYVSRETVPSTYINEYLLDDSGTFAGKVTGWDDDKLAILDLGRERLLAKNAWGIHPKNIYQGMAMDALLDPTIDLVILTGPAGSGKTLLALASALEQVIERGLYDKIIVTRSTPEIAESIGFLPGTEEEKMAPWLAAITDSLEVLHQQDESMHGSLNYIMDKANIQFKSVNFMRGRSIQNALVLLDECQNLTAAQLKTIITRCGEGTKLVCSGNLAQIDSNYLTAVTSGLTYIVERFKDFPGSATVNLNGVVRSRLASFAEENL”, for which the “soluble on expression in E. coli” value is on record as “soluble”.

For “MAHHHHHHMSLAGQFTTFCRTHEQPMNEESCAVFLMAIEVAPSTRQQYARMLRSMLEMNRTPLDMVILGLQKIASRSETKQTRPSTKERGGRMYPQPDRLEGTCCLTTCVDNGELLVRGFGLDFQQFHTGVGRGLSFGLARGAEDGEGGSIPRLAVREDTRAGRLRQYKAMQDTSRKRKAYEAYDCTGDTISGSLGCHGAFHKTGSVEARCSNRGDMRFGPARGLAVGEARRPVRPSPEYCSIFGEIHHNADPGVVIDRIDVKGETAEGQELWLRAEERFFHDFNHNHAATITRRATRTRPTTPQNEHAIPLQQVNVPVLNLEWIQIRLNPATLERLMQVWGLVGRSPFPLSSSGKAREGSRSIPTADARLLNAAGIIEDASSTITGGWIIPFFGCGGENHRFTTTMDRVATRQEQRRAL”, the “soluble on expression in E. coli” value is recorded as “not soluble”.

“MLTKQPIAKKLNVSADVVWKVVRNIGRLDVWFPIIETCRVEGEGAGALRYMTVAGGGEIRDTIEEIDDVTMRLTYLRPLSPFPVTYYKGTVEVFKSYDGLAIVVWTIDFESEPEDAASVAELVRSAISDGIDGMERDLRGALEHHHHHH”: the “soluble on expression in E. coli” value is “soluble”.

Turning to “GPGSMDPTLKELLHANLEWIFVGGKGGVGKTTTSCALATLFATTPISDAASPGGTRPRRVLLISTDPAHNLSDAFNQRFGPHPTPVKGLEESLAAMEVDPKNFTHGALMSSLTGAKSDGSASSLSAEAEADAAQHTASFARIGAVLKEAARTMPGIDEISVFAEILHYVRTLFYDLLIFDTAPTGHTLRLLALPQTLSSTFDKLMSLEGLAPMIEAASHLIGTNLGALGGACGDTAGSCEQATAAPSLSSAAPGEGSAAAASSQSRWCITADEVRSTALHWRQTMEEVQARFNDPNRTSFVCVCIAEFLSVYETERLVQELMKYNIGCDSIVVNQLVLKPSSEPPCRMCSARQKIQAKYLEQIDLLYEDFHVVKMPLLSDEVRGVPALKKFARFLQEPYSPDTHGYIDVQEPC”, the “soluble on expression in E. coli” value is reported as “not soluble”.

As for “MERTGFLEYVLNYVKKGVELGGFPEDFYKILSRPRRVLIVNIPVRLDGGGFEVFEGYRVQHCDVLGPYKGGVRFHPEVTLADDVALAILMTLKNSLAGLPYGGAKGAVRVDPKKLSQRELEELSRGYARAIAPLIGDVVDIPAPDVGTNAQIMAWMVDEYSKIKGYNVPGVFTSKPPELWGNPVREYATGFGVAVATREMAKKLWGGIEGKTVAIQGMGNVGRWTAYWLEKMGAKVIAVSDINGVAYRKEGLNVELIQKNKGLTGPALVELFTTKDNAEFVKNPDAIFKLDVDIFVPAAIENVIRGDNAGLVKARLVVEGANGPTTPEAERILYERGVVVVPDILANAGGVIMSYLEWVENLQWYIWDEEETRKRLENIMVNNVERVYKRWQREKGWTMRDAAIVTALERIYNAMKIRGWI”, the “soluble on expression in E. coli” value is “soluble”.

Take “MGSDKIHHHHHHACEEEGLGNEETPFAPYVLSLGINSNGTTTYYVVTAPELMSGTINAVAKGIEQNGYRDYEQAGQTVFSIGGLGLTSATGIVRDANGYLTERGDFVFNSSLNAFTQMDGQNMIGLELPANKESGDQMTLYTVNISDVSITSQVKAPVFPLNQLEWPSITGMCYSEGNVYVTYFPMNPSTFETLYTDTTFVAVYSYPDMQFKTLMKDTRTGPAGSWNAFNGIFKVESGDMYIMSNSAIANGFSQSTKNAAFLRIPKGETHFDDYYFDFETVSGGLKPAHIKYIGNGLVFAEVSTISPQTSADRWGDKSLKCCIIDLNNKTVRDIKEIPVHNGDGGRRFAALVDGGYVYRPVTASEGTYIYQVDPQAATAVRGAKVSTTFVGGFFRLD”: the “soluble on expression in E. coli” value is recorded as “not soluble”.

With “MGSDKIHHHHHHMANIYPKRAIYCACAKTRKQRRSSYMSNERYNLRGVSASKEDVHAAIKNVDKGIFPQAFCKIIPDILGGDPDYCNIMHADGAGTKSSLAYVYWRETGDLSVWKGIAQDALIMNIDDLLCVGAVDNILVSSTIGRNKRLIPGEVVSAIINGTEELLADLRRMGVNAYATGGETADVGDLVRTIIVDSTVTCRMKRSDVIDNARIKAGDVIVGLASFGQASYEEQYNGGMGSNGLTSARHDVFAHYLAEKYPESFDPSVPDDLVYSGSMKLTDAIAGLGLDAGKLVLSPTRTYAPVVKAILDEMSRRIHGMVHCSGGAQTKVMHFVKNKRVVKDNFFPTPPLFELIQRESLTEWSEMYKVFNMGHRLEVYLSEENASHVIEISESFGIPARIVGRVEEAPTNELILQTPYGEIRY”, the “soluble on expression in E. coli” value is given as “not soluble”.

For “APTPAQMPSPTSFSDSIKQLAAETLPKYMQQLNSLDAEMLQKNHDQFATGSGPLRGSITQCQGLMQFCGGELQAEASAILNTPVCGIPFSQWGTIGGAASAYVASGVDLTQAANEIKGLAQQMQKLLSLMHHHHHH”, the “soluble on expression in E. coli” value is reported as “soluble”.

For “MDGMTPNRLLDLAIQSLLSNESAAIQALEDIPRELFVPLFIAAFKGGHKNTLSAMVKVWPFYCLHMGSLRILEPQHELLKAIIENLPVHPAQTSAFWGPKLRILDLRQDTNCRITCPEVSTKSPSCFHSCIYSDSSITKIERQLCFINSGCKTLLPRPVELILDLFLDGSLIEKDFLILLMHKIEESLGFLHVCCRDLQIDKPCKCKCTLKFLDLQCVDQLSVDRGSLSDITSILGQMGHLESLTLSNVTFRSLRGKVFKIFLSHLQRMENLKELSFSSFRLKNHLDRVLRVLPPDLDFLYLPFCGLSYRDIKFMSQSPHVTHLKLLNLSNNLMYWDDFGPFHSVLSNLSGTLQHLEINHCHISDSAISALIPALIRCTHLRVLGFACNPITMPMLVNIMHHLTPMMELKYVIYPIPVHCYERWHFHGSLDRGKLAIKVLGLPVQAKYPRNGWSKAISSSDENIPKAQTDTIPTCSWSWSLSRLQSAVQPPRDNLGRWKDTYAERAGNAVHGAV”, the “soluble on expression in E. coli” value was “not soluble”.

As to “MCRALQEQREASAAIAREILGDIKLNVTDGEFAVSIAQQEALESYVDLLEKQEQELIAELHRTVLRLSAKIAATRHLRNLAIREAGKQQGMRMAEDTTERGERQHEEA”, the “soluble on expression in E. coli” value is recorded as “not soluble”.

“MGSDKIHHHHHHMSTRESRHPVVSRSQWLAARYYLWLHEKAFTHHRDALTAARRALPWVKVEQDYRFFGPNGALSLADLFAGRSQLLLYHFMFAEGWSEGCPGCSFLADHYDGANLHLAHHDVSLVAVSRAPYAEFQAFRQRMGWQFPWYSSHGSDFNEDFGVSVGSEGQRQYNYEPYEGNESELPGLSAFFREGDGSVYHTYSTYARGLDILVNTYNFLDIAPLGRNEGGTMDWVRHHDRYEGQPDKPHCCHR”: the “soluble on expression in E. coli” value was “not soluble”.

As for “MEEKFTPEEQAIYDEHFASDRPVELVEPEQVREAFNAEESSQQPSVEPLQEQPNSGVIEQERQARQKAEQKAMEARELAIEFAQKYAQMQEEAVRRRDENIPTLEDDPKAHVAWLSHKVQEQQKLLDEFSRIRESQERLNQEEYERQKLGDYFEEAKAQVQDKYPDLDSITDYLYERADSVLQAQADLYPQWKDPAARQQQIGAELRQICQQCQKAGINPIEVLVQKAKAFGYSGAPIKDEVETLQERSQAARTLTARGGQVPTGGMDMRTLFSMPDAEFAVWVEKNPEKFEQIMSRT”, the “soluble on expression in E. coli” value is “not soluble”.
